Experiments:
[1] = target: Ac-N-Asp-Gly-Asp-Ala-Gly-Tyr-Ala-Gly-Leu-Arg-Gly-Ala-Gly-diamino-ethyl-Bodipy FL; assay: cell-based or functional assay
[2] = test system: Ac-N-Asp-Gly-Asp-Ala-Gly-Tyr-Ala-Gly-Leu-Arg-Gly-Ala-Gly-diamino-ethyl-Bodipy FL

Row | Substance | detection limit of the cleavage products in whole rat blood (reaction in 1×PBS, then mixed with inhibitor-treated blood), agarose gel [1] [nM] | cleavage of the substrate, agarose gel electrophoresis, 1×PBS [2]
1 | bovine pancreatic trypsin (from UniProt P00760 24-246) (enzyme) | 50 | –
2 | bovine pancreatic α-chymotrypsin | – | after cleavage by α-chymotrypsin, migrates as two bands toward the cathode, representing a primary ... and a secondary ... α-chymotrypsin cleavage product

— US20160169885A1
